Results published in patent publication US20120114652A1 (AbbVie / Abbott, published 2012).
Where a chain is given by its changes, count along the chain named.

B1: Antibody 14, scFv (scFv, V domains shown)
VH: QVQLQQSGAEVKKPGSSVKVSCKASGGTFSSYAISWVRQAPGQGLEWMGGIIPTFGTANYAQKFQGRVTITADESTSTAYMELSGLRSEDTAVYYCAREKRQWLEGHFDYWGRGTLVTVSS
VL: DIQMTQSPSFLSASIGDRVTITCRASEGIYHNLAWYQQKPGKAPKLLIYRASSLASGAPSRFSGSGSGTDFTFTISSLQPDDFATYYCQQYSNYPLTFGGGTKLEIK
B2: Antibody 01, scFv (scFv, V domains shown)
VH: B1 VH with Q5V, T54I, G85S
VL: B1 VL with F10T, I15V, H31R, N32S, R50K, A58V, D70E, F73L, L104V
B3: Antibody 03, IgG4, not germlined (antibody, V domains shown)
VH: B1 VH with L116P
VL: B1 VL with H31R, N32S, R50K, F73L, S77G
B4: Antibody 11, scFv (scFv, V domains shown)
VH: B1 VH with V37M, T54I, L116P
VL: B1 VL with T5I, I15T, R24Q, N32E, F73L
B5: Antibody 12, scFv (scFv, V domains shown)
VH: B1 VH with G56P, L116P
VL: B1 VL with F73L
B6: Antibody 13, scFv (scFv, V domains shown)
VH: B1 VH with G85D, L116P
VL: B1 VL with N32S, F73L
B7: Antibody 17, scFv (scFv, V domains shown)
VH: B1 VH with L116P
VL: B1 VL with N32E, F73L
B8: Antibody 19, scFv (scFv, V domains shown)
VH: B1 VH with T54I, G56D, K100R, L116P
VL: B1 VL with Q3R, N32E, D70E, F73L
B9: Antibody 21, scFv (scFv, V domains shown)
VH: B1 VH with Q1P, L116P
VL: B1 VL with T5A, F73L
B10: Antibody 22, scFv (scFv, V domains shown)
VH: B1 VH with S31G, A61S, L116P
VL: B1 VL with P8L, N32A, F73L

The binders below were run against T1, human PAI-1, active, wild-type, non-glycosylated (E. coli-derived) (human, UniProt P05121 24-402) (assay: cell-based or functional assay).

| Binder | IC50 HT-1080 Exo PAI-1 [nM] |
| --- | --- |
| B1 | 28 |
| B2 | 23.9 |
| B3 | 9.5 |

Each binder was assayed against T2, mouse PAI-1 (mouse, UniProt P22777 24-401) (assay: cell-based or functional assay).
T2 sequence: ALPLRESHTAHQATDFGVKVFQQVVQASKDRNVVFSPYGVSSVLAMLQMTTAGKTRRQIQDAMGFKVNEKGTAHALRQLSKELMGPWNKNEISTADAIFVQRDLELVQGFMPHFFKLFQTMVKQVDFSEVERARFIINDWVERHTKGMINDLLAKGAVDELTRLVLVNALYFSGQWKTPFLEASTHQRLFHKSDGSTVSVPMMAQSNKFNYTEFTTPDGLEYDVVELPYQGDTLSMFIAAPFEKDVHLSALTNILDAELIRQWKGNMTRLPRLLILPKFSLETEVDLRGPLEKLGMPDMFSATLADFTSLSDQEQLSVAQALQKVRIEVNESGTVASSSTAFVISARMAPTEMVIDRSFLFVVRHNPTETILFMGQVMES

| Binder | IC50 HT-1080 Exo PAI-1 [nM] |
| --- | --- |
| B1 | 22 |
| B2 | 34.5 |

These binders were tested against T3, rat PAI-1 (rat, UniProt P20961 24-402) (assay: cell-based or functional assay).
T3 sequence: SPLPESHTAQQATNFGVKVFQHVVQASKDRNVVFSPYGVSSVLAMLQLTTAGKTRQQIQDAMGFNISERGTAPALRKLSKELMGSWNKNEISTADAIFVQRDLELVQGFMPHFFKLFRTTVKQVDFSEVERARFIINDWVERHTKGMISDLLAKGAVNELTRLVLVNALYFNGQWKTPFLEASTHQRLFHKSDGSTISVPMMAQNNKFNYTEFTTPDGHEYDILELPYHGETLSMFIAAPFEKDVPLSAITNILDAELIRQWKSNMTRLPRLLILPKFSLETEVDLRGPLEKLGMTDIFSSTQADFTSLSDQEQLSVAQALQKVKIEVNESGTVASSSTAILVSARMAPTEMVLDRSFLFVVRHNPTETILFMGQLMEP

| Binder | IC50 HT-1080 Exo PAI-1 [nM] |
| --- | --- |
| B1 | 52 |

Molecular target: T1, human PAI-1, active, wild-type, …
Assay: cell-based or functional assay
Remark: another data set of the same source

| Binder | IC50 chromogenic [nM] |
| --- | --- |
| B4 | 102 |
| B5 | 2.3 |
| B6 | 2.9 |
| B2 | 3.4 |
| B7 | 71.5 |
| B8 | 26 |
| B9 | 4.1 |
| B10 | 5 |

Molecular target: T2, mouse PAI-1
Assay: cell-based or functional assay
Remark: another data set of the same source

| Binder | IC50 chromogenic [nM] | IC50 ratio mouse/human |
| --- | --- | --- |
| B4 | 33.6 | 0.3 |
| B5 | 27.8 | 12.2 |
| B6 | 247 | 85.8 |
| B2 | 28.3 | 8.2 |
| B7 | 26.2 | 0.4 |
| B8 | 6.4 | 0.2 |
| B9 | 32.2 | 7.9 |
| B10 | 413 | 82.6 |
| B3 | 12.9 | – |

Molecular target: T3, rat PAI-1
Assay: cell-based or functional assay
Remark: another data set of the same source

| Binder | IC50 chromogenic [nM] | IC50 ratio rat/human |
| --- | --- | --- |
| B4 | 59.5 | 0.6 |
| B5 | 78.2 | 34.4 |
| B6 | 140 | 48.6 |
| B1 | 23.1 | – |
| B2 | 208 | 60.5 |
| B7 | 24.9 | 0.3 |
| B8 | 7.9 | 0.3 |
| B9 | 49.2 | 12 |
| B10 | 406 | 81.2 |

What follows are binders tested against cynomolgus PAI-1 (cynomolgus, UniProt P05121 24-402 (human entry), limits assumed) (assay: cell-based or functional assay).

| Binder | IC50 chromogenic [nM] | IC50 ratio cyno/human |
| --- | --- | --- |
| B4 | 43.8 | 0.4 |
| B5 | 0.6 | 0.3 |
| B6 | 1.2 | 0.4 |
| B1 | 0.8 | – |
| B2 | 1.2 | 0.4 |
| B7 | 41.5 | 0.6 |
| B8 | 10.8 | 0.4 |
| B9 | 1.6 | 0.4 |
| B10 | 1.5 | 0.3 |
| B3 | 0.5 | – |
